Results taken from patent US12648946B2, “Combination of antibody-pyrrolobenzodiazepine derivative conjugate and PARP inhibitor” (DAIICHI SANKYO COMPANY, LIMITED, priority 2019, dated 2026).

What was measured:
[1] = tested on: BxPC-3, human pancreatic cancer cell line of human CLDN6-negative cells; assay: Internalization activity of antibodies (Mab-ZAP, CellTiter-Glo); assay type: cell-based; conditions: antibody 1 nM with Mab-ZAP 0.5 nM, 5 days
Method: (§1) Internalization activity of the mouse anti-CLDN6 antibodies B1 and C7 was evaluated by using the anti-mouse IgG reagent, to which a toxin that inhibits protein synthesis (saporin) had been conjugated, Mab-ZAP (Advanced Targeting Systems). In this evaluation, Mab-ZAP is incorporated into cells in a manner depending on the internalization activity of a mouse anti-CLDN6 antibody, and saporin, which inhibits protein synthesis, is released in the cells to suppress cell growth.
(§2) JEG-3 (ATCC HTB-36), a human choriocarcinoma cell line of human CLDN6-positive cells, NIH: OVCAR-3 (ATCC HTB-161), a human ovarian cancer cell line of human CLDN6-positive cells, or BxPC-3 (ATCC CRL-1687), a human pancreatic cancer cell line of human CLDN6-negative cells, was seeded in a 96-well cell culture microplate at 2×10^3 cells/well, and cultured under conditions of 37° C. and 5% CO2 overnight. On the next day, a mixed solution obtained by mixing each mouse anti-CLDN6 antibody or mouse IgG1 antibody (R&D Systems, Inc.) to a final concentration of 1 nM, with Mab-ZAP (final concentration: 0.5 nM) or AffiniPure Goat Anti-Mouse IgG, Fcγ Fragment Specific (Jackson ImmunoResearch Laboratories Inc.) (final concentration: 0.5 nM), without conjugated toxin, was added, and the cells were cultured under conditions of 37° C. and 5% CO2 for 5 days. The number of surviving cells was determined through quantification of ATP activity by using CellTiter-Glo Luminescent Cell Viability Assay (Promega Corporation).

[2] = tested on: JEG-3, human choriocarcinoma cell line of human CLDN6-positive cells; assay: as above; assay type: cell-based; conditions: antibody 1 nM with Mab-ZAP 0.5 nM, 5 days
Method: as §1, §2

[3] = tested on: NIH: OVCAR-3, human ovarian cancer cell line of human CLDN6-positive cells; assay: as above; assay type: cell-based; conditions: antibody 1 nM with Mab-ZAP 0.5 nM, 5 days
Method: as §1, §2

human claudin-6 = molecular target: T1, human claudin-6 (Homo sapiens, UniProt P56747); assay: FACS analysis of hybridoma antibodies on claudin-6 forced-expression cells; assay type: binding; conditions: human claudin-6-expressing CHO-K1 cells, cDNA transfection
T1 construct: expressed in transfected cells; host or cells: CHO-K1 cells
T1 sequence (P56747 1-220): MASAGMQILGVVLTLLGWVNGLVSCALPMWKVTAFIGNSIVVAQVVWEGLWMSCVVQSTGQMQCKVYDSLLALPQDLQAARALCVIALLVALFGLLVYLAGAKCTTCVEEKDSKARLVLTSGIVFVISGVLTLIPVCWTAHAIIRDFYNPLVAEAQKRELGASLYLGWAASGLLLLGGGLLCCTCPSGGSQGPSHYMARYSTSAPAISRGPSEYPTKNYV
Method: Since the antigen for the 218B1 antibody and 218C7 antibody was estimated to be claudin-6 from the mass spectrometry, forced expression analysis by cDNA transfection was carried out.

B1: C7: mouse anti-CLDN6 antibody from hybridoma 218C7; heavy chain variable region SEQ ID NO: 25, light chain SEQ ID NO: 23 (antibody, listed as Mus musculus, V domains shown)
VH: EVQLQQSGPELVKPGASVKISCKTSGYTFTEYTMHWVQQSHGKSLEWIGGVNPNSGDTSYNQKFKGKATLTVDKSSSTAYMELRSLTSEDSAVYYCARPGGYDVGYYAMDYWGQGTSVTVSS
VL: DIQMTQTASSLSASLGDRVTISCRASQDINNYLNWYQQKPDGTVKLLIYSTSRLHSGVPSRFSGSGSGTHYSLTITHLEQEDIATYFCQQGYPLPWTFGGGTKLEIK
modifications: amino acid sequence of variable region of C7 antibody heavy chain; amino acid sequence of variable region of C7 antibody light chain
For B1, the “Cell growth-suppressing effect (internalization activity)” value (from here on “Cell growth-suppressing effect”) [1] was “no cell growth-suppressing effect”, the “Cell growth-suppressing effect” value [2] was “cell growth-suppressing effect” and the “Cell growth-suppressing effect” value [3] was “cell growth-suppressing effect”. The FACS reaction (human claudin-6) was “strong positive reaction”.
